From the Human Domainome abundance scans (Beltran et al. 2025)
± gives the uncertainty stated by the source.

B1: Histidine--tRNA ligase, cytoplasmic, residues 8 to 45; numbered along this chain, P12081 (parent)
chain: EELVKLQGERVRGLKQQKASAELIEEEVAKLLKLKAQL

Variants of: B1
Test: abundance fitness (aPCA) (normalised: wild type 0, dead -1); higher = more abundant; growth selection in yeast, the domain comes from the species named
Conditions: Homo sapiens

| Variant | abundance fitness |
| --- | --- |
| EELQKLQGERVRGLKQQKASAELIEEEVAKLLKLKAQL | -0.563 ± 0.11 |
| EELIKLQGERVRGLKQQKASAELIEEEVAKLLKLKAQL | -0.013 ± 0.084 |
| EELYKLQGERVRGLKQQKASAELIEEEVAKLLKLKAQL | 0.077 ± 0.11 |
| EELEKLQGERVRGLKQQKASAELIEEEVAKLLKLKAQL | -0.139 ± 0.088 |
| EELWKLQGERVRGLKQQKASAELIEEEVAKLLKLKAQL | -0.468 ± 0.12 |
| EELSKLQGERVRGLKQQKASAELIEEEVAKLLKLKAQL | -0.264 ± 0.077 |
| EELGKLQGERVRGLKQQKASAELIEEEVAKLLKLKAQL | -0.227 ± 0.073 |
| EELCKLQGERVRGLKQQKASAELIEEEVAKLLKLKAQL | -0.46 ± 0.097 |
| EELNKLQGERVRGLKQQKASAELIEEEVAKLLKLKAQL | -0.139 ± 0.094 |
| EELDKLQGERVRGLKQQKASAELIEEEVAKLLKLKAQL | -0.01 ± 0.13 |
| EELPKLQGERVRGLKQQKASAELIEEEVAKLLKLKAQL | -0.658 ± 0.092 |
| EELKKLQGERVRGLKQQKASAELIEEEVAKLLKLKAQL | -0.568 ± 0.16 |
| EELMKLQGERVRGLKQQKASAELIEEEVAKLLKLKAQL | -0.079 ± 0.092 |
| EELHKLQGERVRGLKQQKASAELIEEEVAKLLKLKAQL | -0.463 ± 0.089 |
| EELRKLQGERVRGLKQQKASAELIEEEVAKLLKLKAQL | -0.544 ± 0.077 |
| EELTKLQGERVRGLKQQKASAELIEEEVAKLLKLKAQL | -0.19 ± 0.082 |
| EELLKLQGERVRGLKQQKASAELIEEEVAKLLKLKAQL | -0.201 ± 0.083 |
| EELFKLQGERVRGLKQQKASAELIEEEVAKLLKLKAQL | -0.109 ± 0.096 |
| EELVKLAGERVRGLKQQKASAELIEEEVAKLLKLKAQL | -0.348 ± 0.082 |
| EELVKLFGERVRGLKQQKASAELIEEEVAKLLKLKAQL | -0.73 ± 0.11 |
| EELVKLEGERVRGLKQQKASAELIEEEVAKLLKLKAQL | -1.63 ± 0.36 |

| Variant | abundance fitness |
| --- | --- |
| EELVKLGGERVRGLKQQKASAELIEEEVAKLLKLKAQL | -0.619 ± 0.09 |
| EELVKLDGERVRGLKQQKASAELIEEEVAKLLKLKAQL | -0.492 ± 0.09 |
| EELVKLCGERVRGLKQQKASAELIEEEVAKLLKLKAQL | -0.616 ± 0.096 |
| ETLVKLQGERVRGLKQQKASAELIEEEVAKLLKLKAQL | -0.591 ± 0.081 |
| ECLVKLQGERVRGLKQQKASAELIEEEVAKLLKLKAQL | -1.08 ± 0.3 |
| EHLVKLQGERVRGLKQQKASAELIEEEVAKLLKLKAQL | -0.195 ± 0.079 |
| EILVKLQGERVRGLKQQKASAELIEEEVAKLLKLKAQL | -0.369 ± 0.087 |
| EWLVKLQGERVRGLKQQKASAELIEEEVAKLLKLKAQL | -0.97 ± 0.098 |
| ELLVKLQGERVRGLKQQKASAELIEEEVAKLLKLKAQL | -0.632 ± 0.094 |
| EMLVKLQGERVRGLKQQKASAELIEEEVAKLLKLKAQL | -0.636 ± 0.11 |
| EGLVKLQGERVRGLKQQKASAELIEEEVAKLLKLKAQL | -0.868 ± 0.2 |
| EVLVKLQGERVRGLKQQKASAELIEEEVAKLLKLKAQL | -0.762 ± 0.085 |
| ESLVKLQGERVRGLKQQKASAELIEEEVAKLLKLKAQL | -0.327 ± 0.085 |
| EFLVKLQGERVRGLKQQKASAELIEEEVAKLLKLKAQL | -0.274 ± 0.28 |
| ENLVKLQGERVRGLKQQKASAELIEEEVAKLLKLKAQL | -0.049 ± 0.11 |
| EALVKLQGERVRGLKQQKASAELIEEEVAKLLKLKAQL | -0.665 ± 0.089 |
| ERLVKLQGERVRGLKQQKASAELIEEEVAKLLKLKAQL | -0.661 ± 0.1 |
| EYLVKLQGERVRGLKQQKASAELIEEEVAKLLKLKAQL | -0.452 ± 0.11 |
| EKLVKLQGERVRGLKQQKASAELIEEEVAKLLKLKAQL | -0.703 ± 0.16 |
| EQLVKLQGERVRGLKQQKASAELIEEEVAKLLKLKAQL | -0.472 ± 0.11 |
| EPLVKLQGERVRGLKQQKASAELIEEEVAKLLKLKAQL | -0.9 ± 0.11 |

| Variant | abundance fitness |
| --- | --- |
| EEFVKLQGERVRGLKQQKASAELIEEEVAKLLKLKAQL | -0.341 ± 0.099 |
| EEHVKLQGERVRGLKQQKASAELIEEEVAKLLKLKAQL | -0.362 ± 0.095 |
| EEIVKLQGERVRGLKQQKASAELIEEEVAKLLKLKAQL | -0.086 ± 0.095 |
| EEPVKLQGERVRGLKQQKASAELIEEEVAKLLKLKAQL | -0.729 ± 0.082 |
| EESVKLQGERVRGLKQQKASAELIEEEVAKLLKLKAQL | -0.066 ± 0.067 |
| EERVKLQGERVRGLKQQKASAELIEEEVAKLLKLKAQL | -0.258 ± 0.12 |
| EEEVKLQGERVRGLKQQKASAELIEEEVAKLLKLKAQL | 0.203 ± 0.091 |
| EEQVKLQGERVRGLKQQKASAELIEEEVAKLLKLKAQL | 0.153 ± 0.1 |
| EEVVKLQGERVRGLKQQKASAELIEEEVAKLLKLKAQL | -0.366 ± 0.074 |
| EENVKLQGERVRGLKQQKASAELIEEEVAKLLKLKAQL | -0.287 ± 0.096 |
| EEMVKLQGERVRGLKQQKASAELIEEEVAKLLKLKAQL | 0.156 ± 0.089 |
| EEGVKLQGERVRGLKQQKASAELIEEEVAKLLKLKAQL | -0.45 ± 0.1 |
| EETVKLQGERVRGLKQQKASAELIEEEVAKLLKLKAQL | -0.024 ± 0.087 |
| EEDVKLQGERVRGLKQQKASAELIEEEVAKLLKLKAQL | -0.454 ± 0.11 |
| EEYVKLQGERVRGLKQQKASAELIEEEVAKLLKLKAQL | -0.549 ± 0.077 |
| EEWVKLQGERVRGLKQQKASAELIEEEVAKLLKLKAQL | -1.54 ± 0.12 |
| EEAVKLQGERVRGLKQQKASAELIEEEVAKLLKLKAQL | -0.162 ± 0.069 |
| EECVKLQGERVRGLKQQKASAELIEEEVAKLLKLKAQL | -0.896 ± 0.098 |
| EEKVKLQGERVRGLKQQKASAELIEEEVAKLLKLKAQL | -0.088 ± 0.11 |
| EELVKGQGERVRGLKQQKASAELIEEEVAKLLKLKAQL | -0.171 ± 0.12 |
